The target in the assay is Cyanophora paradoxa photosystem I monomer2 (PSI-monomer unit lacking PsaK) (Cyanophora paradoxa (endogenous, strain NIES-547)) (UniProt P48112). The assay is described as follows: cryo-EM structure; PSI tetramer purified from Cyanophora thylakoids; GraFix (glutaraldehyde cross-linked) tetramer at 3.8 Å with C2 symmetry; unfixed wild-type tetramer at 4.0 Å; focused maps of monomer1 and monomer2 at 3.3 Å and 3.2 Å; 0.03% β-DDM, 50 mM Mes-NaOH pH 6.5.
Sequence of UniProt P48112 (P48112 whole entry, looked up): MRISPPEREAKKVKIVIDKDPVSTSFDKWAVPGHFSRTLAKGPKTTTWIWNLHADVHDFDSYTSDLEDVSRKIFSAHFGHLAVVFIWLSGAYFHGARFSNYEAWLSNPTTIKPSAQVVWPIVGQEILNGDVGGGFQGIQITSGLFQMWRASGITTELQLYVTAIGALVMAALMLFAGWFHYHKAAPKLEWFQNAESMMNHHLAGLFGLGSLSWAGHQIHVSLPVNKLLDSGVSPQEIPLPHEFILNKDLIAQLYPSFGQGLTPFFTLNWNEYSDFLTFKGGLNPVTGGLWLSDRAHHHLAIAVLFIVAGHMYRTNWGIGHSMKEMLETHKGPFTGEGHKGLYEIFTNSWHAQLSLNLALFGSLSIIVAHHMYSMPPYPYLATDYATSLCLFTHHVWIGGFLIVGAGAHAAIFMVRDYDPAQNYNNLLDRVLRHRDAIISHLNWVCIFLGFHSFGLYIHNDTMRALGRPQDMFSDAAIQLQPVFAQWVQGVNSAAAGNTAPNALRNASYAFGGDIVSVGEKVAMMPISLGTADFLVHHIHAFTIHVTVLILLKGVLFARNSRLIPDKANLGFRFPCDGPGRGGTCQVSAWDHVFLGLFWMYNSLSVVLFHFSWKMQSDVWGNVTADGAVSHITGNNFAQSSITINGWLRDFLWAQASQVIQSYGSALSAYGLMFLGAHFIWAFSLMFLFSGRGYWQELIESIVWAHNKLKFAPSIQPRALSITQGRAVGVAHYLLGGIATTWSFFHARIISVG

In turn, “Cyanophora paradoxa photosystem I monomer1 (PSI-monomer unit with PsaK) (from UniProt P48112 1-752; P31173 1-81; Q9T4W8 54-220; P48114 1-70; P48115 26-186; P48116 1-35; P48117 1-40; P48185 1-31) (complex)” displayed a stoichiometry N (PSI-monomer units) of 4.

Values taken from publication PMC8967866.
